In publication PMC5643561, “Zdhhc13-dependent Drp1 S-palmitoylation impacts brain bioenergetics, anxiety, coordination and motor skills” (Scientific Reports, 2017):

Target: T1, Drp1, recombinant, purified (Novus Biologicals # H00010059-P01) (UniProt O00429 1-736)
T1 construct: Drp1 (dynamin-related protein 1); The methods call Drp1 GST-tagged and immobilised; The results describe it as untagged analyte at 56, 167 and 500 nM; also called GST-tagged recombinant, purified Drp1; recombinant Drp1; source: bought: Novus Biologicals, # H00010059-P01
Experiment: BLI; Octet RED384 (ForteBio), anti-GST biosensor. Methods: GST-Drp1 immobilised, WT or L203X Zdhhc13 in solution. Results: GST-Zdhhc13 captured, Drp1 at 56, 167 and 500 nM.
Details: both partners purified

T1 sequence (O00429 whole entry): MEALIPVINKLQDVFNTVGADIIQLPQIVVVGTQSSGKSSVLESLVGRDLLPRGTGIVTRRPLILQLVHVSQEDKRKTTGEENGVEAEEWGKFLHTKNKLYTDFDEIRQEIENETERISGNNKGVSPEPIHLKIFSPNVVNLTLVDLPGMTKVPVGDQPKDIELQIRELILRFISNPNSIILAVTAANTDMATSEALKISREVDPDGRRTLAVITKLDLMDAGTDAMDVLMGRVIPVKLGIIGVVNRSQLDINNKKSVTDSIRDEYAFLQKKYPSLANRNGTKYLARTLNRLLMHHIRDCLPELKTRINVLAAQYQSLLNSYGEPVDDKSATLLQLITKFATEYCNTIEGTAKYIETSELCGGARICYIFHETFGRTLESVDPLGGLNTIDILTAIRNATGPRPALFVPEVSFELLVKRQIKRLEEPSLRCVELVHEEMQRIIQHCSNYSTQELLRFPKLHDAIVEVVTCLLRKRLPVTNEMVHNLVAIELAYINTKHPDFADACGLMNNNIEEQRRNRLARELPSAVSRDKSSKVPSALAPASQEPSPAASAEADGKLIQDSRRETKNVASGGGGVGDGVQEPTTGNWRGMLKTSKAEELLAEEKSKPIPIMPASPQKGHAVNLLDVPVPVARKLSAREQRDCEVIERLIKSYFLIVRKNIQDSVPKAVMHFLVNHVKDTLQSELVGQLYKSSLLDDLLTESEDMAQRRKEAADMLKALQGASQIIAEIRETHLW

B1: Zdhhc13 L203X, truncated form, recombinant (mouse sequence) (domain or fragment, UniProt Q9CWU2 1-202, looked up)
chain: MEGPGLGSQCRNHSHGSHVPGFGRHGICVHENKELAKAKEILPLIEDSSNCDIVKATQYGIFERCKELVEAGYDVRQPDRENVSLLHWAAINNRLELVKFYISKGAVIDQLGGDLNSTPLHWAIRQGHLPMVILLLQHGADPTLIDGEGFSSIHLAVLFQHMPIIAYLISKGQSVNMTDVNGQTPLMLSAYKVIGPEPTGFL
notes: Zdhhc13, mouse, UniProtKB Q9CWU2; naturally occurring nonsense mutation L203X (premature stop codon at codon 203), so the chain ends at residue 202; also called L203X Zdhhc13; truncated Zdhhc13; source: purified recombinant (culture eluate)
Kd: 88 nM
koff: 0.0018 s⁻¹
kon: 21000 M⁻¹ s⁻¹

B2: Zdhhc13, wild type, recombinant (mouse sequence) (enzyme, UniProt Q9CWU2 1-622, looked up)
chain: MEGPGLGSQCRNHSHGSHVPGFGRHGICVHENKELAKAKEILPLIEDSSNCDIVKATQYGIFERCKELVEAGYDVRQPDRENVSLLHWAAINNRLELVKFYISKGAVIDQLGGDLNSTPLHWAIRQGHLPMVILLLQHGADPTLIDGEGFSSIHLAVLFQHMPIIAYLISKGQSVNMTDVNGQTPLMLSAYKVIGPEPTGFLLKFNPSLSVVDKTHQNTPLHWAVAAGNVSAVDKLLEAGSSLDIRNAKGETPLDMALQSKNQLISHMLRTEAKMRANKQFRLWRWLHKCELFLLLILSMITLWAVGYILDFNSDSWLLKGCLLVALFFLTSLFPRFLVGYKNLVYLPTVFLLSSIFWIFMTWFILFFPDTAGSPLYFAFIFSIMAFLYFFYKTWATDPGFTKASEEERKVNIVTLAETGSLDFRTFCTSCLIRKPLRSLHCHVCNSCVARFDQHCFWTGRCIGFGNHHHYIFFLLSLSMVCDWIIYGSFVYWSNHCATTFKEDGLWTYLNQIVACSPWVLYIFMLAAFHFSWSTFLLINQLFQIAFLGLTSHERISLLKQSRHMKQTLSLRKTPYNLGFTQNLADFFQCGCFGLVKPCIIDWTSQYTMVFHPAKEKVLRSV
notes: Zdhhc13, mouse, UniProtKB Q9CWU2; also called WT Zdhhc13; full length GST-tagged Zdhhc13; source: purified recombinant (culture supernatant)
Kd: 560 nM
koff: 0.046 s⁻¹
kon: 82000 M⁻¹ s⁻¹
